{
  "source": "patent US12661385B2",
  "about": "“Modulation of mTORCI activity and autophagy via CIB2-RHEB interaction” (University of Maryland, Baltimore, priority 2018, dated 2026)",
  "molecules": {"B1": {"name": "CIB2: calcium and integrin binding protein 2, over-expressed in cells from plasmid constructs; SEQ ID NO:1 (human), SEQ ID NO:2 (mouse) (protein)", "chain": "MGNKQTIFTEEQLDNYQDCTFFNKKDILKLHARFYELAPNLVPMDYRKSPIVHVPMSLIIQMPELRENPFKERIVEAFSEDGEGNLTFNDFVDMFSVLCESAPRELKANYAFKIYDFNTDNFICKEDLEMTLARLTKSELEEDEVVLVCDKVIEEADLDGDGKLGFADFEDMIAKAPDFLSTFHIRI", "modifications": "left off: large carriers"}},
  "key": {"mTORC2": {"test_system": "mTORC2", "assay": "Phosphoprotein immunoblots of HEK293 cells overexpressing increasing amounts of CIB2, mTORC2 target", "type": "cell-based", "description": "(§1) FIG. 3. […] Note the stronger interaction between CIB2 and Rheb S20N variant as compared to Q64L variant (GDP vs GTP mimetic, respectively). c, CIB2 preferentially interacts with GDP-loaded Rheb is further confirmed by co-IP experiments of HA-GST-Rheb immobilized on […] and loaded with either GDP or GTPγS, followed by incubation with tdTomato-CIB2 lysate. d, Proposed model of CIB2 function in retinal sensory cells. […] Loss of CIB2 results in reduced autophagy and exacerbated mTORC1 signaling, thus leading to RPE pathology and secondary PR dysfunction. e, f Immunoblots from RPE/choroid lysates from dry AMD or control age-matched donors indicate reduced CIB2 expression, overactive mTORC1 and reduced autophagy, quantified in panel f. Unpaired two-tailed 1 test was used to determine statistical significance. p value of <0.05 (*), <0.01 (**), and <0.001 (***). Please note that one control sample (ψ) is outliner and is highly variant from the rest, Re-quantification, omitting the highly variant control sample, is shown in FIG. 15. g.\nmTORC1 integrates various metabolic and amino acid signals through its nutrient-sensing arm and growth signals, which converge on the small GTPase Rheb, via the TSC complex (Wolfson et al., Cell Metabolism 26, 301-309 (2017)). We first tested if CIB2 is a specific negative regulator of mTORC1 and/or mTORC2. […]"}, "mTORC1 [1]": {"test_system": "mTORC1", "assay": "Phosphoprotein immunoblots of LAM-621 cells overexpressing CIB2, mTORC1 targets", "type": "cell-based, human", "conditions": "LAM-621 cells overexpressing increasing amounts of CIB2"}, "mTORC1 [2]": {"test_system": "mTORC1", "assay": "Phosphoprotein immunoblots of HEK293 cells overexpressing increasing amounts of CIB2, mTORC1 targets", "type": "cell-based", "description": "as §1\nmTORC1 integrates various metabolic and amino acid signals through its nutrient-sensing arm and growth signals, which converge on the small GTPase Rheb, via the TSC complex (Wolfson et al., Cell Metabolism 26, 301-309 (2017)). We first tested if CIB2 is a specific negative regulator of mTORC1 and/or mTORC2. We used HEK293 cells, because the mTORC1 signaling pathway is well-established in this cell line, and to expand CIB2 functions beyond the RPE.\n80% confluent HEK293 cells in 10-cm dishes were transfected for co-IP experiments with 10 μg of indicated plasmid/s using the polyethylenimine (PEI) method (3:1::PEI:DNA). 2 plates per condition were used. 36 hr later the plates were chilled on ice, washed once with ice-cold PBS, and cells collected in ice-cold PBS and centrifuged for 2 min at 1500 RPM at 4° C. Cell pellet was then lysed in IP buffer (0.3% CHAPS, 40 mM HEPES, 2.5 mM MgCl2, 1× Protease inhibitors, 1 mM Na orthovanadate, 10 mM Na glycerophosphate, 10 mM NaF) on ice for 20 min, followed by centrifuging at full speed for 20 min at 4° C. […]"}, "Raptor": {"target": "Raptor (Homo sapiens, UniProt Q8N122)", "sequence (Q8N122 whole entry)": "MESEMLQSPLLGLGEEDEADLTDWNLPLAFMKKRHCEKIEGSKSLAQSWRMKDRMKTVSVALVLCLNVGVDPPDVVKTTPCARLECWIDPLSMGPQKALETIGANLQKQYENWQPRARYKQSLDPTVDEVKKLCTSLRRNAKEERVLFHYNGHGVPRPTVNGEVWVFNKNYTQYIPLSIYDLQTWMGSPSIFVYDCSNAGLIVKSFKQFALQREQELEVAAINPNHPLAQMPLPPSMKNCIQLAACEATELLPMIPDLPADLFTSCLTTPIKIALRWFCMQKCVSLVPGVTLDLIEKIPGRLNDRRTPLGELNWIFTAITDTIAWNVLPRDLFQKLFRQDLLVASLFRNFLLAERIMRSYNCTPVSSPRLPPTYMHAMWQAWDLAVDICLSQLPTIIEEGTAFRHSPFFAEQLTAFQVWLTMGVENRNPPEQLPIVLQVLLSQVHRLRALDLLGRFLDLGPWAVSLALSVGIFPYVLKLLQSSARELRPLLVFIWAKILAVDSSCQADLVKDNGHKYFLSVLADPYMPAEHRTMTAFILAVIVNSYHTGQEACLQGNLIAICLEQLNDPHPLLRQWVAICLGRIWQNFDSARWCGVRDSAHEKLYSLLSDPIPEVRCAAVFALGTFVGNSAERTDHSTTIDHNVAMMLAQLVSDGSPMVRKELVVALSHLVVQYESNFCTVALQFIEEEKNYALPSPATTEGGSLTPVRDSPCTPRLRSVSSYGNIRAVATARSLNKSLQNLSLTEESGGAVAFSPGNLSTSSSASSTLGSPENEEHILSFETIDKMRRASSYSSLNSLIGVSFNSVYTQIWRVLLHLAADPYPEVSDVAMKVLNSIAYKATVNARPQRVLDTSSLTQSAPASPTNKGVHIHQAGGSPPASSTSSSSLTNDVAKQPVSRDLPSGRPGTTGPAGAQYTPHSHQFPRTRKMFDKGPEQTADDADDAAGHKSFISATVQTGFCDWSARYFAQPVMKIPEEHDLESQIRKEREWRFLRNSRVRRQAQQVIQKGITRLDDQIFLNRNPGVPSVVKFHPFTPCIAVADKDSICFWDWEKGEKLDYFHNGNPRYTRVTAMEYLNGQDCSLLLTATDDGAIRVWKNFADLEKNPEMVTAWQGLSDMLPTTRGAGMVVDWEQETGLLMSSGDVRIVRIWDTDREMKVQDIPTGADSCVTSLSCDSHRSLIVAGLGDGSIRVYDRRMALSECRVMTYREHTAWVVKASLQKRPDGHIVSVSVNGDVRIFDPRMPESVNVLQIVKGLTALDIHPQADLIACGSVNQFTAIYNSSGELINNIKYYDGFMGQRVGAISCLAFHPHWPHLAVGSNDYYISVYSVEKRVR", "assay": "NanoSPD (nanoTRAP) interaction assay in COS-7 cells, Raptor", "type": "binding", "design": "HA (N); mCherry (N)", "conditions": "filopodia tip co-accumulation", "source_text": "FIG. 14. […] Arrowheads indicate filopodia tip accumulation of hCIB2-eGFP, * indicates no accumulation of indicted constructs in the red channel. c. Representative confocal images (top panel) showing CIB2 (green) interaction with Rheb (red) and Raptor (red) using NanoTRAP assay. […] Arrowheads indicate filopodia tip accumulation of indicated constructs, * indicates no accumulation of indicted construct in the red or far-red channel. Scale bar: 10 μm. d. Quantification for nanoTRAP assay for images shown above. *** p<0.001 by one-way ANOVA. e, Co-IP experiments show interaction between Raptor and CIB2.\nTo reveal the molecular mechanism of CIB2-mediated mTORC1 modulation, we focused on the TSC-Rheb-mTORC1 axis. We performed an interaction screen of specific proteins including TSC1, TSC2, mTORC1-specific subunit Raptor, mTOR kinase, and Rheb. We used a recently-published quantitative interaction assay known as nanoscale pulldown 2.0 (NanoSPD), in which eGFP-nanobody tag fused to the myosin-HMM domain (nanoTRAP) preferentially migrates to the filopodia (Bird et al., Molecular Biology of the Cell 28, 463-475 (2017)). CIB2-eGFP (bait) migrated efficiently to filopodia in COS-7 cells only in the presence of the nanoTRAP. […] Many downstream and upstream targets of mTORC1 regulate its activity via binding to the mTORC1-specific subunit Raptor. […]"}},
  "data": [
    {"molecule": "B1", "values": [
      {"measurement": "mTORC2-mediated phosphorylation of AKT", "setting": "mTORC2", "value": "no changes"},
      {"measurement": "Phosphorylated 4E-BP-1", "setting": "mTORC1 [1]", "value": "decreasing amounts"},
      {"measurement": "Phosphorylated ULK1", "setting": "mTORC1 [1]", "value": "decreasing amounts"},
      {"measurement": "Phosphorylation of 4E-BP1", "setting": "mTORC1 [2]", "value": "decreasing phosphorylation"},
      {"measurement": "Phosphorylation of S6K1", "setting": "mTORC1 [2]", "value": "decreasing phosphorylation"},
      {"measurement": "Phosphorylation of ULK1", "setting": "mTORC1 [2]", "value": "decreasing phosphorylation"},
      {"measurement": "Interaction with Raptor (NanoSPD)", "setting": "Raptor", "value": "interacts with CIB2"}
    ]}
  ]
}
